What is called stoichiometry N is a count of units in the complex or per binding partner.

Consider two substances from article PMC10665668.

The target in assay [1] is class II sulfofructose-1-phosphate (SFP) aldolase from Hafnia paralvei (Hafnia paralvei). Kind of assay: SEC-MALS.
For assay [2], the target named is class II sulfofructose-1-phosphate (SFP) aldolase from Yersinia aldovae (Yersinia aldovae). Kind of assay: SEC-MALS. A general note: In gel filtration, larger molecules generally elute earlier.

For the substance “class II sulfofructose-1-phosphate (SFP) aldolase from Hafnia paralvei (enzyme)”, the stoichiometry N in assay [1] is 4.

For the substance “class II sulfofructose-1-phosphate (SFP) aldolase from Yersinia aldovae (enzyme)”, the stoichiometry N in assay [2] worked out at 4.
